In PMC3571714:

Key:
[1] = target: A1T1-His6 (module 1 multi-domain construct of the nocardicin NRPS) (Nocardia uniformis subsp. tsuyamanensis ATCC 21806); assay: pull-down
[2] = target: A4T4-His6 (module 4 multi-domain construct of NocB) (Nocardia uniformis subsp. tsuyamanensis ATCC 21806); assay: pull-down

## MbtH family protein NocI (untagged) (natural protein)
[1]
  stoichiometry N: 1
[2]
  stoichiometry N: 1
